One molecule from patent US20260285984 (published 2026) can be followed below.

This assay addresses PD-1 (human). Description: SPR (range 50-70 nM).

For orientation: Kd means the constant that tells how readily two partners part at equilibrium. A lower Kd goes with tighter binding.

PD-1 (human), sequence (chain, as listed by the source): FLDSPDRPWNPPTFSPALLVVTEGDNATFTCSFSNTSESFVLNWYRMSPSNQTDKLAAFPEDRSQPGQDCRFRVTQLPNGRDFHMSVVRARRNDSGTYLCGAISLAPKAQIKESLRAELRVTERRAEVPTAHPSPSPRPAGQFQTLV

B1: PD-1 agonist VHH (antibody, V domains shown)
VH: EVQLVESGGALVQPGGSLRLSCAASGFTFSSYAMTWVRQAPGKGPEWVSAIASDGASTSYLDSVKGRFTVSRDNAKNTLYLQMNSLKPEDTAVYYCARGGYLTYDRYGQGTQVTVSS
For B1, the Kd was ~60 nM.
